Key:
PANC1 spheroids = assay: 3D-spheroid growth assay, PANC1; format: cell-based, human; conditions: 3D floating PANC1 spheroids, 0.5 µM, treated day 0, 2, 4, 7, 9 over 10 days; vs vehicle [0.2% DMSO] and DRx-150 [10 µM]; n = 5
Procedure: PANC1 cells were seeded at 2 × 10^3 in wells of a round bottom Nunclon™ Sphera™ 96 well-plate with ultra-low attachment coating (Thermo; #174925), containing 200 μL DMEM (2% FBS, 2 mM L-glutamine, 100 U/I Pen-Strep). To encourage spheroid formation, PANC1 cells were centrifuged at 250 × g for 10 min at room temperature. PANC1 spheroids were then allowed to grow for 3 days at 37 °C, 5% CO2, humidified air. Spheroids were then treated with appropriate concentration of DRx-peptide/afatinib by first removing 100 μL of media from each well (careful not to disturb spheroid), followed by addition of 100 μL drug at 2× concentration. Cells were treated five times over a 10 day period (day 0, 2, 4, 7 and 9). Spheroids were imaged on day 0, 2, 4, 7 and 10 using a Nikon Eclipse TS2 microscope and spheroid area quantified using Image J software. Data represented as a fold-difference of relative day 0 spheroid measurement (i.e., day 0 normalised to 1).

[1] = molecular target: T1, full-length human PDE8A1-MBP (human, UniProt O60658-1 1-829); assay: peptide or protein array; human c-RAF 20mer peptides SPOT-synthesised on cellulose membrane; far western approach: 0.1 μM PDE8A1-MBP overnight at 4 °C in 1x TBS, 5% glycerol, pH 7.4; detected with αMBP-HRP and ECL; MBP alone as negative control; signal normalised to the strongest binding peptide; conditions: both partners purified
T1 construct: Phosphodiesterase 8A, isoform PDE8A1, human, full length; the tag was detected with an anti-MBP-HRP antibody (Abcam ab49923); also called human recombinant PDE8A1-MBP; source: recombinant
T1 sequence (O60658 whole entry, canonical isoform): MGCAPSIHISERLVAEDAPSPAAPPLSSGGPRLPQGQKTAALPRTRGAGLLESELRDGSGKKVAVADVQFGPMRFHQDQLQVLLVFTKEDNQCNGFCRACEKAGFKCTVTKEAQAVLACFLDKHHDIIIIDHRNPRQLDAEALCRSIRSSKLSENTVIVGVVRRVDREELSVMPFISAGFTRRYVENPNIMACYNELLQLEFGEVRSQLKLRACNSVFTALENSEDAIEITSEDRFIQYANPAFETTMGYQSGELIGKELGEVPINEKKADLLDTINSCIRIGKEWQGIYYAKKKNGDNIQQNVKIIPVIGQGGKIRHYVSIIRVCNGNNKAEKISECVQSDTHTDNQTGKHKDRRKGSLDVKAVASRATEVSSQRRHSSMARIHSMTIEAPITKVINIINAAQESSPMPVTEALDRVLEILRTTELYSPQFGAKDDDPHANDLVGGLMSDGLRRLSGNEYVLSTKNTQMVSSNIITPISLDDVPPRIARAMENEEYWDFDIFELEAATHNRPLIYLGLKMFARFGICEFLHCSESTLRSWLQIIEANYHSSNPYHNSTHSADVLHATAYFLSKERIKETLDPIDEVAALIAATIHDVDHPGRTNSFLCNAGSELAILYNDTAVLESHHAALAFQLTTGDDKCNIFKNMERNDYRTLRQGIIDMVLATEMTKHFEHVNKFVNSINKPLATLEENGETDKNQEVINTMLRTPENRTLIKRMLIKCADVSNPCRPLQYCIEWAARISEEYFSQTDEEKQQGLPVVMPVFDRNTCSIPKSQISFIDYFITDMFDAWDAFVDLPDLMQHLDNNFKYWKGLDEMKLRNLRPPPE

Row | Molecule | relative spheroid area (fold-difference vs. Day 0) (PANC1 spheroids) | binding result [1]
1 | CN(C)C/C=C/C(=O)Nc1cc2c(Nc3ccc(F)c(Cl)c3)ncnc2cc1O[C@H]1CCOC1 [afatinib, afatinib dimaleate] | significantly attenuated | –
2 | FGYQRRASDDGKLTDPSKTS (peptide, UniProt P04049 36-55, looked up, c-RAF, human, 20mer of the peptide array, residues F36–S55; source: synthetic peptide, SPOT synthesis on cellulose membrane) [human c-RAF peptide 8 (F36–S55)] | – | binds
3 | NTSSPSSEGSLSQRQRSTST (peptide, UniProt P04049 241-260, looked up, c-RAF, human, 20mer of the peptide array, residues N241–T260; source: synthetic peptide, SPOT synthesis on cellulose membrane) [human c-RAF peptide 49 (N241–T260)] | – | binds
4 | HSLPKINRSASEPSLHRAAH (peptide, UniProt P04049 611-630, looked up, c-RAF, human, 20mer of the peptide array, residues H611–H630; source: synthetic peptide, SPOT synthesis on cellulose membrane) [human c-RAF peptide 123 (H611–H630)] | – | binds
5 | MKRLVADCVKKVKEERPLFP (peptide, UniProt P04049 581-600, looked up, c-RAF, human, 20mer of the peptide array, residues M581–P600; source: synthetic peptide, SPOT synthesis on cellulose membrane) [human c-RAF peptide 117 (M581–P600)] | – | binds
